± gives the standard deviation.
Experiment: protein stability index of a GFP-peptide fusion (GPS, HEK-293T) (PSI 1-6); higher = more stable
[1] = treatment: DMSO, c terminus: a fixed tail appended
[2] = treatment: MLN4924 1 uM, 8 h, c terminus: a fixed tail appended
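Also: 24-mer peptide tiles fused after GFP, lentivirally expressed, FACS-sorted into six equal bins by GFP/DsRed ratio, decoded by Illumina sequencing, PSI is the read-weighted mean bin number.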

| Sequence | protein stability index [1] | protein stability index [2] | protein stability index (treatment: DMSO, c terminus: native) | protein stability index (treatment: MLN4924 1 uM, 8 h, c terminus: native) |
| --- | --- | --- | --- | --- |
| DRGSCVSTTEGIQLAKELGATYLE [RHOBTB3] | 4.45 ± 0.14 | 4.47 ± 0.24 | – | – |
| ELREACDYLCISFEYSTIKCRDLS [BTBD10] | 3.06 ± 0.21 | 3.13 ± 1 | – | – |
| RFTRTPVDQTGVSGGVASFICQAT [PTPRD] | 3.12 ± 0.28 | 3.19 ± 0.37 | – | – |
| WFSLASVIFLLLFAPFIVYYFIMA [DHCR7] | 2.27 ± 0.53 | 2.34 ± 0.44 | – | – |
| GGAGKEGVRVNNRFELINIDDLED [TCF25] | 4.82 ± 0.49 | 4.91 ± 0.28 | – | – |
| PRPDMAPELTPEEEQATKQFLEEI [PTPN9] | 5.12 ± 0.48 | 5.08 ± 0.62 | – | – |
| MDSAGQDINLNSPNKGLLSDSMTD [TPD52L2] | 5.32 ± 0.2 | 5.25 ± 0.2 | – | – |
| EDTSNDESSILGTDIDLQTIDNDI [M1AP] | 5.56 ± 0.093 | 5.56 ± 0.18 | – | – |
| GACYGDDACFVARHRSADVLGVAD [PPTC7] | 4.18 ± 0.34 | 4.817 ± 0.045 | – | – |
| GKPLAGIYRKREEKRNAGNAVRSA [KMT5A] | 4.24 ± 0.35 | 4.39 ± 0.19 | – | – |
| VNVDNLLAAAVVQEHSNSVGGQDT [C18orf25] | 5.05 ± 0.21 | 4.92 ± 0.43 | – | – |
| ETDEDEEEGDEQQRLLNTPRRKKL [GMCL1] | 5.6 ± 0.3 | 5.63 ± 0.28 | – | – |
| CCIVTSTYGWTANMERIMKAQALR [HSP90AB1] | – | 2.42 ± 0.4 | – | – |
| KNLYTNEYVAIKLEPMKSRAPQLH [CSNK1G3] | 2.55 ± 0.28 | 2.5 ± 0.13 | – | – |
| FCIDSENRIGNSGVEEIKGHPFFE [STK38L] | 2.97 ± 0.58 | 3.03 ± 0.18 | – | – |
| IYRKREEKRNAGNAVRSAMKSEEQ [KMT5A] | 4.47 ± 0.17 | 4.39 ± 0.25 | – | – |
| SDFQIEPGFYATYESTLFEDQVPA [MIA2] | 3.92 ± 0.27 | 3.7 ± 0.31 | – | – |
| LKHPNIVRLHDSISEEGHHYLIFD [CAMK2A] | 2.58 ± 0.32 | 2.79 ± 0.25 | – | – |
| LHRLKFLGFARRNWGNGKRPNLET [GDAP1] | 2.22 ± 0.32 | 2.44 ± 0.45 | – | – |
| EKQELHRNMLGLLGNVAEVKELRP [ZER1] | 3.74 ± 0.16 | 4.04 ± 0.31 | – | – |
| FKLKPLSNKTATDDTGGKDPRNV [PLD5] | – | – | 4.78 ± 0.17 | 4.89 ± 0.19 |
| AEDTEKKDEPSKYNQQQALIDQRY [CEP70] | 5.2 ± 0.31 | 5.36 ± 0.059 | – | – |
| RADPLVCATGLLGSAPFLFLSLAC [SPNS1] | 3.37 ± 0.32 | 3.04 ± 0.22 | – | – |

| Sequence | protein stability index [1] | protein stability index [2] | protein stability index (treatment: DMSO, c terminus: native) | protein stability index (treatment: MLN4924 1 uM, 8 h, c terminus: native) |
| --- | --- | --- | --- | --- |
| IRQVLQGLDYLHSKCKIIHTDIKP [SRPK2] | 2.35 ± 0.44 | 2.22 ± 0.23 | – | – |
| TKRCFRLAPTFSNLLLQPTTNPHT [SMG5] | 2.41 ± 0.22 | 2.59 ± 0.29 | – | – |
| VETARSHQRSSSESYTQSFQSRKP [PI4K2A] | 5 ± 0.33 | 5.04 ± 0.29 | – | – |
| SPGGTLMDLSERQEVSSVRSLSST [DLC1] | 4.61 ± 0.24 | 4.85 ± 0.2 | – | – |
| AQSPGAVEEILDRENKRMADSLAS [BET1L] | 5.12 ± 0.14 | 5.35 ± 0.26 | – | – |
| QLILFGLSNQLAVTFREENTIAFR [MCOLN1] | 2.65 ± 0.49 | 2.33 ± 0.64 | – | – |
| SKPCDLHCTTVDGQRQLMVPARDG [ADAMTSL2] | 4.33 ± 0.11 | 4.37 ± 0.36 | – | – |
| PISPSTEVGGSGIGTPPSVLKRQR [MYBL2] | 5.36 ± 0.24 | 4.97 ± 0.36 | – | – |
| RTVNALEIELQAQHNLRDSLENTL [KRT34] | 3.41 ± 0.064 | 3.64 ± 0.42 | – | – |
| SITFTTGLEAPRDLEAKEVTPRTA [TNXB] | 5.22 ± 0.37 | 5.16 ± 0.3 | – | – |
| CQVALNFANEEEAKKFRKAVTDLL [WASL] | 1.91 ± 0.35 | 2.53 ± 0.84 | – | – |
| FGCEECGKKYNTMLGYKRHLALHA [PLAGL1] | 3.94 ± 0.12 | 3.97 ± 0.27 | – | – |
| VAHVKHLSASQKALKEKEKASWSS [COX4I1] | 3.57 ± 0.4 | 3.83 ± 0.34 | – | – |
| KEQEETIQRIDENVLGAQLDVEAA [STX5] | 5.52 ± 0.22 | 5.4 ± 0.34 | – | – |
| LLMTADILAETGIRKTVKRLRKHQ [ELOA2] | 2.41 ± 0.31 | 2.84 ± 0.25 | – | – |
| NPYTELLVLKAHHDIVRFLVQLDD [WDR41] | 2.84 ± 0.39 | 2.65 ± 0.35 | – | – |
| CHRHYHSMEVFTHYDLLNLNGTKV [LOXL2] | 2.21 ± 0.12 | 1.99 ± 0.25 | – | – |
| GRLGRWLRSTRFSGSLDRLRETRV [PCDHGC5] | 3.34 ± 0.18 | 3.3 ± 0.36 | – | – |
| NIEEIDEIPLVIKYKKAVGLKLKQ [WDR88] | 2.78 ± 0.19 | 2.91 ± 0.28 | – | – |
| RSVSEPRDQHPQPSLGDSLESIPS [RTN2] | 5.34 ± 0.41 | 5.17 ± 0.24 | – | – |
| SIGRRRTELRRSGSSRSPGSKARA [PLEKHN1] | 4.88 ± 0.47 | 4.95 ± 0.27 | – | – |
| YKPPALKKSNSPGTASSGSSRLPQ [ZC2HC1A] | 4.46 ± 0.079 | 4.51 ± 0.2 | – | – |

Reference: the supplement of paper PMC10567573
